Where a chain is given by its changes, count along the chain named.
B1: VHH clone Ig-S506 (cluster Ig-7) (VHH)
VHH: QVQLVESGGGLVQAGGSLRLSCAASGFTFDDYVIGWFRQAPGKEREGVSCISSSDGSTNYADSVKGRFTISSDNAKNTVYLQMNSLKPEDTAVYYCAEGPTVLDGCIYDSGSYYFSWGQGTQVTVSS
B2: VHH clone Ig-S675 (cluster Ig-7) (VHH)
VHH: B1 VHH with S25T, P41S, S52R, S57D, N59Y, I70V, Y108V, G111E
B3: VHH clone Ig-S1139 (cluster Ig-7) (VHH)
VHH: B1 VHH with N59Y, Y108V
B4: VHH clone Ig-S8492 (cluster Ig-7) (VHH)
VHH: B1 VHH with S57R, N59D, E98A, D109Y
B5: VHH clone Ig-S6584 (cluster Ig-7) (VHH)
VHH: B1 VHH with V33I, I34V, S52R, I70V, G111E

target: Fab of trastuzumab (human); test: SPR; Fab of trastuzumab amine-coupled to a CM5 chip (1,000 RU), VHH as analyte in a 1/2 dilution series; Biacore X100, HBS-EP (10 mM HEPES pH 7.4, 150 mM NaCl, 3 mM EDTA, 0.005% P20), 20°C, 10 µL/min, association 360 s, dissociation 800 s; 1:1 binding model

| Kd [nM] | koff [s⁻¹] | kon [M⁻¹ s⁻¹] | Binder |
| --- | --- | --- | --- |
| 246 | 0.0073 | 29700 | B1 |
| 0.155 | 4.71e-05 | 303000 | B2 |
| 233 | 0.00554 | 23700 | B3 |
| 123 | 0.000245 | 1990 | B4 |
| 5.99 | 0.000221 | 36900 | B5 |

— publication PMC10825579
